Columns and labels:
GST-Chk2(1-222) = GST-Chk2(1-222) (UniProt O96017)
[1] = target: GST-fusion protein containing amino acids 227-325 of KIAA0175 (UniProt Q14680)
[2] = target: GST-fusion protein containing amino acids 327-517 of KIAA0175 (UniProt Q14680)
[3] = target: GST-fusion protein containing amino acids 42-182 of KIAA0175 (UniProt Q14680)
GST-hDM2 (330-491) = GST-hDM2 (330-491) (UniProt Q00987)
GST-p53 (1-106) = GST-p53 (1-106) (UniProt P04637)
[4] = target: KIAA0175 (327-517) with serine 391 mutated to alanine (UniProt Q14680)

Ataxia telangiectasia mutated (ATM)
in vitro phosphorylation by ATM immunoprecipitates (GST-Chk2(1-222)): KIAA0175 (327-517) phosphorylation was comparable to that seen with several known substrates of ATM included in the same assay, ... GST-Chk2(1-222)
in vitro phosphorylation by ATM immunoprecipitates [1]: amino acids 227-325 with no SQ sites, were not phosphorylated
in vitro phosphorylation by ATM immunoprecipitates [2]: A fusion including amino acids 327-517 harboring S^391Q was a substrate for ATM
in vitro phosphorylation by ATM immunoprecipitates [3]: amino acid 42-182 (containing S100Q and S^125Q) ... were not phosphorylated
in vitro phosphorylation by ATM immunoprecipitates (GST-hDM2 (330-491)): KIAA0175 (327-517) phosphorylation was comparable to that seen with several known substrates of ATM included in the same assay, ... GST-hDM2 (330-491)
in vitro phosphorylation by ATM immunoprecipitates (GST-p53 (1-106)): KIAA0175 (327-517) phosphorylation was comparable to that seen with several known substrates of ATM included in the same assay, GST-p53 (1-106)
irradiation induced phosphorylation by ATM [4]: Mutation of serine 391 to alanine completely abolished the irradiation induced phosphorylation by ATM

Reference: patent US20020049180
